We go through 41 sequences from the nanobody polyreactivity screen of Harvey et al. (2022).

The data set in a line: yeast display, Sf9 membrane polyspecificity reagent, FACS + sequencing; frameworks hold sequencing errors. In short, it runs like this:
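Polyreactivity labels are assigned by the sorting gate from which each nanobody was recovered. The gates were low and high (top ~1%), set on anti-HA fluorescence for expression and streptavidin fluorescence for reagent binding. Before sorting, galactose-induced (36–48 hours) yeast display cells were stained for 1 hour at 4 °C with 10% biotinylated, detergent-solubilized Sf9 membrane reagent.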
Turning to “QVQLVESGGGLVQAGGSLRLSCAASGSIFYVYAMGWSRQAPGKERELVASITRRRTNYADSVKGRFTISRDTAKNTVYLQMNSLKPEDTAVYYCAATTYVRQYATYDYWGQGTQVTVSS”, the “polyreactivity (PSR sort gate)” value was “high polyreactivity”.

Regarding “QVQLVESGGGLVQAGGSLRLSCAASGSIFYWNAMGWYRQAPGKERELVAAINYSGDSTYYADSVKGRFTISRDNAKNTVYLQMNSLKPEDTEVYYCNFDYWGQGTQVTVSS”, the “polyreactivity (PSR sort gate)” value is recorded as “low polyreactivity”. For “QVQLVESGGGLVQAGGSLRLSCAASGSIFYWNAMGWYRQAPGKERELVAAISYNGGSTYYADSVKGRFTISRDNAKNTVYLQMNSLKPEDTAVYYCAADNYYYGYEYWGQGTQVTVSS”, the “polyreactivity (PSR sort gate)” value is given as “high polyreactivity”.

For “QVQLVESGGGLVQAGGSLRLSCAASGSIFYWYAMGWYRQAPGKERELVAAISSSNDSTDYADSVKGRFTISRDNAKNTVYLQMNSLKPEDTAVYYCAARYGTIQYDYWGQGTQVTVSS”, the “polyreactivity (PSR sort gate)” value was “low polyreactivity”.

In the case of “QVQLVESGGGLVQAGGSLRLSCAASGSIFYWYAMGWYRQAPGKERELVAAITRAGSTNYADSVKGRFTISRDNAKNTVYLQMNSLKPEDTAVYYCAVAVTSYSSKKLYYWGQGTQVTVSS”, the “polyreactivity (PSR sort gate)” value is listed as “low polyreactivity”. Consider “QVQLVESGGGLVQAGGSLRLSCAASGSIFYYAMGWYRQAPGKERELVAAITTGDGTNYADSVKGRFTISRDNAKNTVYLQMNSLKPEDTAVYYCNSLPYQVWKRYSWGQGTQVTVSS”, for which the “polyreactivity (PSR sort gate)” value is listed as “low polyreactivity”. As for “QVQLVESGGGLVQAGGSLRLSCAASGSIFYYAMGWYRQAPGKERELVATITRRGGRTHYADSVKGRFTLSRDNAKNTVYLQMNSLKPEDTAVYYCAADSYSYRYYYWGQGTQVTVSS”, the “polyreactivity (PSR sort gate)” value is reported as “high polyreactivity”. In the case of “QVQLVESGGGLVQAGGSLRLSCAASGSIFYYNAMGWYRQAPGKERELVATIRTSGGSTYYADSVKGRFTISRDNAKNTVYLQMNSLKPEDTAVYYCAARDLRKLYSRYPYYYWGQGTQVTVSS”, the “polyreactivity (PSR sort gate)” value is on record as “high polyreactivity”. To “QVQLVESGGGLVQAGGSLRLSCAASGSIFYYNAMGWYRQAPGKERELVATITSAVSTNYADSVKWRFTISRDNAKNTVYLQMNSLKPEDTAVYYCAADVVYISGYDYWGQGTQVTVSS” belongs “low polyreactivity”; to “QVQLVESGGGLVQAGGSLRLSCAASGSIFYYNPMGWYRQAPGKERELVATISGRGGSTYYADSVKGRFTISRDNAKNTVYLQMNILKPEDTAVYYCNTVPSHHRHTKYDYWGQGTQVTVSS”, “low polyreactivity”. Regarding “QVQLVESGGGLVQAGGSLRLSCAASGSIFYYNSMGWYRKAPGKEREFVAAISARGGSTYYADSVKGRFTISRDNAKNTVYLQLNSLKPEDSAVYYCAASWGMGTYSDSTFWGGYYYWGQGTQVTVSS”, the “polyreactivity (PSR sort gate)” value is “low polyreactivity”. For the sequence “QVQLVESGGGLVQAGGSLRLSCAASGSIFYYYAMGWDRQAPGKERELVAGITGSGGRTYYADSVKGRFTISRDNAKNTVYLQMNSLKPEDTAVYYCAATRRDSTGSLYYYWGQGTQVTVSS”, the “polyreactivity (PSR sort gate)” value is “high polyreactivity”.

As to “QVQLVESGGGLVQAGGSLRLSCAASGSIFYYYAMGWYRQAPGKERELVAAIDFGGGSTYYADSVKGRFTISRDNEKNTVYLQMNSLKPEDTAVYYCAARTFKDAGTAYGSWGQGTQETVSS”, the “polyreactivity (PSR sort gate)” value was “high polyreactivity”. Then “QVQLVESGGGLVQAGGSLRLSCAASGSIFYYYAMGWYRQAPGKERELVAAISGTGGSTYYADSVKGRFSISRDNAKNTVYLQMNSLKPEDTAVYYCAASFYIERHRYNYWGQGTQVTVSS”, with “high polyreactivity”. Take “QVQLVESGGGLVQAGGSLRLSCAASGSIFYYYAMGWYRQAPGKERELVAAISRSGGSTYYADSVKGRFTISRDNAKNTVYVQMNSLKRDDTAVYYCAAQSRYWTYDYWGQGTQVTVSS”: the “polyreactivity (PSR sort gate)” value is recorded as “high polyreactivity”. In the case of “QVQLVESGGGLVQAGGSLRLSCAASGSIFYYYAMGWYRQAPGKERELVAAITRSGNTYYADSVKGRFTISRDNAKNTVYLQMNSLKPEDTAVYYCAAEYGGGYGWGQGTQVTVSS”, the “polyreactivity (PSR sort gate)” value is listed as “high polyreactivity”. To “QVQLVESGGGLVQAGGSLRLSCAASGSIFYYYAMGWYRQAPGKERELVAAITRSVSRTYYADSVKGRFTISRDNAKNTVYLQMNYLKPEVTAVYYCNVVGSSETSTVYYCGQGTQVTVSS” belongs “high polyreactivity”; to “QVQLVESGGGLVQAGGSLRLSCAASGSIFYYYAMGWYRQAPGKERELVARITFSGGDTYYADSVKGRFTISRDNAKNTVYLQMNSLKPEDSAVYYCAAYCSYFFAWLDSYRDDYDYWGQGTQVTVSS”, “low polyreactivity”; to “QVQLVESGGGLVQAGGSLRLSCAASGSIFYYYAMGWYRQAPGKERELVASITRGGSTYYADSVKGRFTISRDNAKNTVYLQMNSLKPEDTAVYYCNADLGAYVPFDYWGQGTQVTVSS”, “high polyreactivity”. Consider “QVQLVESGGGLVQAGGSLRLSCAASGSIFYYYAMGWYRQAPGKERELVATISSGGGSTYYADSVKGRFTISRDNAKNTVYLQMNSLKPEDTAVYYCAKRRWRSYYDSWGQGTQVTVSS”, for which the “polyreactivity (PSR sort gate)” value is “low polyreactivity”.

Regarding “QVQLVESGGGLVQAGGSLRLSCAASGSIFYYYAMGWYRQAPGTERELVAAIYNGGSTYYADSVKGRFTISRDNAKNTVYLQMNSLKPEDTAVYYCNAGYSYWYRDLGYDSWGQGTQVTVSS”, the “polyreactivity (PSR sort gate)” value is reported as “low polyreactivity”.

As for “QVQLVESGGGLVQAGGSLRLSCAASGSIFYYYDMGWYRQAPGKERELVAAIRGSGGSTYYADSVKGRFTISRDNAKNTVYLQMNSLKPEDTAVYYCAAEFGDQRFYRQYVRRDHWGQGTQVTVSS”, the “polyreactivity (PSR sort gate)” value was “low polyreactivity”. Then “QVQLVESGGGLVQAGGSLRLSCAASGSIFYYYGMGWYRQAPGKESDLVARISKSVGRTYYADSVKGRFTISRDNAKNTVYLQMNSLKPEDTAVYYCAASRSFQGNRYDYWGQGTQVTVSS”, with “high polyreactivity”; and “QVQLVESGGGLVQAGGSLRLSCAASGSIFYYYSMGWYRQAPGKERELVARITSGGSTKYADSVKGRFTISRDNAKYTVYLQMNSLKPEDTAVYYCAARYQYNYWGTYGSWGQGTQVTVSS”, with “high polyreactivity”; and “QVQLVESGGGLVQAGGSLRLSCAASGSIFYYYTMGWYRQAHGKESEFVATMTYSGGSTYYADSVKGRFTISRDNAKNTVYLQMNSLKPEDTAVYYCNARPRYYDWVDYWGQGTQVTVSS”, with “low polyreactivity”.

With “QVQLVESGGGLVQAGGSLRLSCAASGSIFYYYVMGWYIQAPGKERELVAAISSGGGTNYADSVKGRFTISRDNAKNSVYLQMNSLNPEDTAVYYGAKASAYGLANDYDYWGQGTQVTVSS”, the “polyreactivity (PSR sort gate)” value is given as “low polyreactivity”. To “QVQLVESGGGLVQAGGSLRLSCAASGSIIAGYTMGWYRQAPGKERELVAGIRRGGSTNYADSVKGRFTISRDNAKNTVYLQMNSLKPEDTAVYYCNAQRTRSYVLRTFDYWGQGTQVTVSS” belongs “high polyreactivity”.

Turning to “QVQLVESGGGLVQAGGSLRLSCAASGSIIATNAMGWYRQAPGKERELVAAISRSAGRTYYADSVKGRFTISRDNAKNTVYLQMNRLKPDDTAVYYCNAVFPGVTNQMDYWGQGTQVTVSS”, the “polyreactivity (PSR sort gate)” value was “high polyreactivity”. To “QVQLVESGGGLVQAGGSLRLSCAASGSIIDANAMGWYRQAPGKERELVAAITSGDSTYYADSVKGRFTISRDNAKNTVYLQMNSLKPEDTAVYYCAADPVWHYYRMDYWGQGTQVTVSS” belongs “low polyreactivity”; to “QVQLVESGGGLVQAGGSLRLSCAASGSIIDRNAMGWYRQAPGKERELVAAITSGGSTYYADSVKGRFTISRDNAKHTDYLKLNSLKPEDTAVYYCNADTDPPVPLYYWGQGSQVTVSS”, “low polyreactivity”; to “QVQLVESGGGLVQAGGSLRLSCAASGSIIDYYAMGWYRPAPGKERELVAAISESSDSTYYADSVKGRFTISRDNAKNTVYLQMNSLTPEDTAVYYCAADSLTPKSASDYWGQGTQVTVSS”, “low polyreactivity”.

In the case of “QVQLVESGGGLVQAGGSLRLSCAASGSIIDYYAMGWYRQAPGKERELVAAISSSVGITYYADSVKGRFTISRDNAKNTVYLQMNSLKPEDTAVYYCAADLYGWYFYNQEYDSWGQGTQVTVSS”, the “polyreactivity (PSR sort gate)” value is “low polyreactivity”. Regarding “QVQLVESGGGLVQAGGSLRLSCAASGSIIFSYAMGWYRQAPGKEREFVAAITGSGGSTYYADSVKGRFTISRDNAKNTVYLQMNSLKPEDTAVYYCARPQWRDWYGYWGQGTQVTVSS”, the “polyreactivity (PSR sort gate)” value is “low polyreactivity”. Take “QVQLVESGGGLVQAGGSLRLSCAASGSIIGDNTMGWYRQAPGKERELVATIRKNGASTTYADSVKGRFTISRDNAKNTVYLQMNSLKPEDTAVYYCARDHHTKYNYWGQGTQVTVSS”: the “polyreactivity (PSR sort gate)” value is listed as “low polyreactivity”. Consider “QVQLVESGGGLVQAGGSLRLSCAASGSIIGIYAMGWYRQAPGKERELVAAISWSGGSTYYADSVKGRFTISRDNAKNTVYLQMNSLKPEDTAVYYCNAYPAYLDDYWGQGTQVTVSS”, for which the “polyreactivity (PSR sort gate)” value was “low polyreactivity”.

On to “QVQLVESGGGLVQAGGSLRLSCAASGSIIGNYAMGWYREAPGKERELVAAISWSGGSTYYADSVKGRFTISRDNAKNTVYLQMNSLKPEDTAVYYCAAVDYYRYRSDYDYWGQGTQVTVSS”, for which the “polyreactivity (PSR sort gate)” value is “low polyreactivity”. Then “QVQLVESGGGLVQAGGSLRLSCAASGSIIGSYAMGWYRQAPGKERELVAAINSGGSTNYADSVKGRFTISRDNAKNTVYLQMNSLKPEDTAVYYCASRQVYKFRRYDYWGQGTQVTVSS”, with “high polyreactivity”. Turning to “QVQLVESGGGLVQAGGSLRLSCAASGSIIGSYAMGWYRQAPGKERELVAAISKSGGSTYYADSVKGRFTISRDNAKNTVYLQMNSLKPEDTAVYYCAARAYRYAYRAYDYWGQGTQVTVSS”, the “polyreactivity (PSR sort gate)” value is on record as “high polyreactivity”. With “QVQLVESGGGLVQAGGSLRLSCAASGSIIHPYTMGWYRPAPGKERELVAGISESSDSTYYADSVKGRFTISRDNAKNTVYLQMNSLKPEYTAVYYCNRDHDWPLSVLEVDYWGQGTQVTVSS”, the “polyreactivity (PSR sort gate)” value was “low polyreactivity”. Then “QVQLVESGGGLVQAGGSLRLSCAASGSIIHTNTMGWYRQAPGKERELVAAISGGSTYYADSVKGRFTISRDNAKNTVYLQMNSLKPEDTAVYYCAAGWSVWYQDFDYWGQGSQVTVSS”, with “high polyreactivity”. Then “QVQLVESGGGLVQAGGSLRLSCAASGSIIKYYAMGWYRQAPGKEREFVAAITASSSRTYYADSVKGRFTISRDNAKNKVYLQMNSLKPEDTAVYYCAAVGPGRRRDYWGQGTQVTVSS”, with “high polyreactivity”.
